Source: patent publication US6566077B1, “Peptide useful as a ligand” (Tecnogen S.C.p.A., priority 1995, dated 2003)
No end group written: not given here.

Tests used:
albumin = biological target: T1, albumin (Oryctolagus cuniculus, UniProt P49065); experiment: Affinity chromatography of crude rabbit serum on a column of immobilized ligand: retention or carry-over of albumin; type: binding
T1 construct: tissue SIGMA R 9133; host or cells: crude rabbit serum
Procedure: (§1) In order to purify immunoglobulins, the column was equilibrated with a 25 mM BIS-TRIS buffer (SIGMA, Cat. B9754) pH 6.5, at a flow rate of 1 ml/min, while the eluent was monitored at 280 nm. One milliliter of crude rabbit serum (SIGMA Cat. No. R 9133) was then loaded on the column, and after elution of non retained material at the column void volume, the eluent was changed to 0.1 M acetic acid.
(§2) Material desorbed by such a treatment was collected and analyzed by electrophoretic analysis on a polyacrylamide gel.
(§3) The purification of rabbit immunoglobulins from crude serum by affinity chromatography is shown in FIG. 1 while the electrophoretic analysis of the collected fractions is shown in FIG. 2. […] Furthermore, in FIG. 2 are also shown the electrophoretic analyses corresponding to several rabbit immunoglobulins purifications obtained after equilibration of the affinity column with different buffers, namely 0.1 M ammonium acetate pH 5.7 (A), 0.1 M sodium phosphate pH 7.0 (B), or 0.1 M sodium phosphate pH 8.5 (C).
Indeed similar results were attained with other supports such as Protein-Pak (Waters, USA), Eupergit C30N (Sigma, USA) and Affi-Gel (Bio-Rad, USA).

rabbit immunoglobulins = experiment: Affinity chromatography of crude rabbit serum on a column of immobilized peptide, with polyacrylamide gel electrophoresis of the fractions; type: binding
Procedure: The peptide of formula (H-L-Arg-L-Thr-L-Tyr-)4-Lys2-Lys-Gly-OH (5 mg) was dissolved in 5 ml of 0.1 M sodium bicarbonate buffer pH 9.0 and then added to 1.2 g of activated resin CH-Sepharose 4B (Pharmacia, Uppsala, Sweden Cat. No. 17-0490-01), which is a chromatographic support for affinity chromatography preactivated for the direct coupling to peptides and proteins. The suspension was shaken for 24 h and the coupling level was monitored by taking aliquots of the reaction mixture at different times and subsequent RP-HPLC analysis.
Approximately 90% of initial peptide resulted covalently linked to the resin after 24 h. The derivatized resin was washed with 50 ml of 1 M TRIS pH 9.0 and then packed on a glass column (100×6.6 mm I.D.).
as §1, §2, §3

[1] = biological target: albumin of crude rabbit serum (rabbit, UniProt P49065 25-608); experiment: affinity chromatography of crude rabbit serum on the peptide immobilised on CH-Sepharose 4B; SDS-PAGE of fractions
Chain of albumin of crude rabbit serum (P49065 25-608 limits assumed): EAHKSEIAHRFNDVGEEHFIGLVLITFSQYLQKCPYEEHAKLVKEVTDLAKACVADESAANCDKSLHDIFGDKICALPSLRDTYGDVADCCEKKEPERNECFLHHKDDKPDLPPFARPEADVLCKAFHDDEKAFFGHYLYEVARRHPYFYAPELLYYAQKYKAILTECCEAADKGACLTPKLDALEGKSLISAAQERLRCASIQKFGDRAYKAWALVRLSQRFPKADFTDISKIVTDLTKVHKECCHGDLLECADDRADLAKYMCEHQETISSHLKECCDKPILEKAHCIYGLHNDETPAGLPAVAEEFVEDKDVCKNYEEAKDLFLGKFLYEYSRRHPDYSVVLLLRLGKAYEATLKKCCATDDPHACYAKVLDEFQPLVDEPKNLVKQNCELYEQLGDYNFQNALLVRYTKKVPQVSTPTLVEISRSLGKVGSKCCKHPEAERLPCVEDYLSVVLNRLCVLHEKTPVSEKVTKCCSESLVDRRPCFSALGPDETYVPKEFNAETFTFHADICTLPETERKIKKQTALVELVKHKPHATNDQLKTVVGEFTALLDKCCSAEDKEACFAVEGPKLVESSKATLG

T1 sequence (P49065 25-608): as the sequence (P49065 25-608 limits assumed) above

Molecule: protein A: protein obtained from Staphylococcus aureus, binds specifically to the constant portion of immunoglobulins; comparator affinity ligand [reference compound]
- albumin in the purified fractions (albumin; same serum, immobilized protein A column of the same dimensions): always comprising traces of albumin

Molecule: (H-L-Arg-L-Thr-L-Tyr-)4-Lys2-Lys-Gly-OH (peptide H-Arg-Thr-Tyr; chain KKKG-OH; also: branched tetramer: four RTY arms on the alpha and epsilon amines of two Lys, which are attached to the alpha and epsilon amines of a central Lys followed by Gly)
- retention of albumin by the column (albumin; 1 ml crude rabbit serum, 25 mM BIS-TRIS pH 6.5, peptide on CH-Sepharose 4B): albumin was not retained
- column selectivity compared with immobilized protein A columns (albumin; same serum, columns of the same dimensions): superior to that of columns with immobilized protein A
- purification of immunoglobulins from contaminants after equilibration with different buffers (rabbit immunoglobulins; 0.1 M ammonium acetate pH 5.7, 0.1 M sodium phosphate pH 7.0 or pH 8.5, desorbed with 0.1 M acetic acid): optimal purification of immunoglobulins from contaminants was achieved
- retention of the immunoglobulin fraction from crude serum by the column (rabbit immunoglobulins; 1 ml crude rabbit serum, 25 mM BIS-TRIS pH 6.5, elution with 0.1 M acetic acid, peptide on CH-Sepharose 4B): able to retain the immunoglobulin fraction from the crude serum
- purification capability of the column (rabbit immunoglobulins; immunoglobulins purified from 0.5 ml, 1 ml and 1.5 ml of serum): remarkable purification capability

B1: (H-L-Arg-L-Thr-L-Tyr-)4-Lys2-Lys-Gly-OH (peptide)
peptide: H-Arg-Thr-Tyr
chain: KKKG-OH
modifications: also: branched tetramer: four RTY arms on the alpha and epsilon amines of two Lys, which are attached to the alpha and epsilon amines of a central Lys followed by Gly
notes: Synthetic branched tetramer; also called (H2N-Arg-Thr-Tyr-CO)4-Lys2Lys-Gly-OH; tetrameric tripeptide (H-L-Arg-L-Thr-L-Tyr-)4-Lys2-Lys-COOH
- binding result [1]: no binding
